Target: MreB from Geobacillus stearothermophilus (MreB^Gs), wild type, His6-tagged (Geobacillus stearothermophilus ATCC 7953)
Assay: negative stain electron microscopy of polymerization

## MreB from Geobacillus stearothermophilus (MreB^Gs), wild type, His6-tagged (natural protein)
  concentration of MreB above which polymers were observed: 0.55 µM

Reference: doi:10.1101/2022.10.19.512861
